Source: patent US20250051456A1 (Hoffmann-La Roche, published 2025)
One block for each binder: values may come before it.

How the values were obtained:
[1] = biological target: T1, monomeric human HLA-G β2M MHC class I complex (soluble recombinant wt HLA-G) (human); assay: ELISA, biotinylated wt HLA-G monomer on streptavidin plate; the 6th table ELISA series (monomer, dimer, trimer), separate from the 7th table
T1 construct: also called HLA-G-0003; wt HLA-G (monomer)
Method: The above table summarizes the binding of different rat anti-human HLA-G monoclonal antibodies, derived from wt protein IMS. Shown are the relative EC50 values [ng/ml] of the respective binding to rec. wt monomeric, dimeric and trimeric HLA-G proteins as assessed by ELISA. The ELISA was set up by coating the biotinylated wt HLA-G antigen to strepdavidin plates. After incubation and washing steps, the respective antibodies were bound in a concentration range from […] in 1:2 dilution steps. Detection of bound antibodies was carried out by anti-Fc-antibody-POD conjugates. EC50 values were determined from the resulting binding curves at the antibody concentrations generating the half-maximal signal. In case of the non-biotinylated HLA-G dimer and trimer antigens, immobilization was carried out by random coating on assay plates.

[2] = biological target: human HLA-G expressed on cells (JEG3 naturally; Skov3 and PA-TU-8902 transfectants) (human); assay: cell-based or functional assay

EC50 [1]: 4.95 ng/mL | % TNF release (restoration), different donor, JEG-3 wt co-culture; antibody 0.16 µg/ml [2]: 44% | % TNF release (restoration), different donor, JEG-3 wt co-culture; antibody 0.63 µg/ml [2]: 66% | % TNF release (restoration), different donor, JEG-3 wt co-culture; antibody 2.5 µg/ml [2]: 59% | % TNF release (restoration), different donor, JEG-3 wt co-culture; antibody 10 µg/ml [2]: 40%
B1: HLA-G-0041 (antibody, V domains shown)
VH: EVQLLESGGGLVQPGGSLRLSCAASGFTFSTYGMSWVRQAPGKGLEWVSVISGGGVSTYYADSVKGRFTISRDNSKNTLYLQMNRLRAEDTAVYYCAKDGSYNYGYGDYFDYWGQGTLVTVSS
VL: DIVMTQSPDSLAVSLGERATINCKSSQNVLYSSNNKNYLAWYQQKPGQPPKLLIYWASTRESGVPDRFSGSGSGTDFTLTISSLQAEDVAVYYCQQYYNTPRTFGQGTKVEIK

% TNF release (restoration), different donor, JEG-3 wt co-culture; antibody 0.16 µg/ml [2]: 14% | % TNF release (restoration), different donor, JEG-3 wt co-culture; antibody 0.63 µg/ml [2]: 44% | % TNF release (restoration), different donor, JEG-3 wt co-culture; antibody 2.5 µg/ml [2]: 67% | % TNF release (restoration), different donor, JEG-3 wt co-culture; antibody 10 µg/ml [2]: 74%
B2: HLA-G-0031 (antibody, V domains shown)
VH: QVKLMQSGAALVKPGTSVKMSCNASGYTFTDYWVSWVKQSHGKRLEWVGEISPNSGASNFDENFKDKATLTVDKSTSTAYMELSRLTSEDSAIYYCTRSSHGSFRWFAYWGQGTLVTVSS
VL: AIVLNQSPSSIVASQGEKVTITCRASSSVSSNHLHWYQQKPGAFPKFVIYSTSQRASGIPSRFSGSGSGTSYSFTISRVEAEDVATYYCQQGSSNPYTFGAGTKLELK

% TNF release (restoration), different donor, JEG-3 wt co-culture; antibody 0.16 µg/ml [2]: 198% | % TNF release (restoration), different donor, JEG-3 wt co-culture; antibody 0.63 µg/ml [2]: 219% | % TNF release (restoration), different donor, JEG-3 wt co-culture; antibody 2.5 µg/ml [2]: 233% | % TNF release (restoration), different donor, JEG-3 wt co-culture; antibody 10 µg/ml [2]: 221%
B3: HLA-G-0090 (antibody, V domains shown)
VH: QVQLQQSGPGLLKPSQTLSLTCAISGDSVSSNRAAWNWIRQSPSRGLEWLGRTYYRSKWYNDYAVSVQGRITLIPDTSKNQFSLRLNSVTPEDTAVYYCASVRAVAPFDYWGQGVLVTVSS
VL: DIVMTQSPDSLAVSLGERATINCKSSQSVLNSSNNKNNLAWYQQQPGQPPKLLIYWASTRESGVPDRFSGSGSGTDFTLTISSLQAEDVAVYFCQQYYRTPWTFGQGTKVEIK
